Values of other authors, collected in article PMC9696485.

Target: integrin α6β4 (Homo sapiens) (UniProt P23229)
Chain of UniProt P23229 (P23229 24-1130, chain 1 of 2): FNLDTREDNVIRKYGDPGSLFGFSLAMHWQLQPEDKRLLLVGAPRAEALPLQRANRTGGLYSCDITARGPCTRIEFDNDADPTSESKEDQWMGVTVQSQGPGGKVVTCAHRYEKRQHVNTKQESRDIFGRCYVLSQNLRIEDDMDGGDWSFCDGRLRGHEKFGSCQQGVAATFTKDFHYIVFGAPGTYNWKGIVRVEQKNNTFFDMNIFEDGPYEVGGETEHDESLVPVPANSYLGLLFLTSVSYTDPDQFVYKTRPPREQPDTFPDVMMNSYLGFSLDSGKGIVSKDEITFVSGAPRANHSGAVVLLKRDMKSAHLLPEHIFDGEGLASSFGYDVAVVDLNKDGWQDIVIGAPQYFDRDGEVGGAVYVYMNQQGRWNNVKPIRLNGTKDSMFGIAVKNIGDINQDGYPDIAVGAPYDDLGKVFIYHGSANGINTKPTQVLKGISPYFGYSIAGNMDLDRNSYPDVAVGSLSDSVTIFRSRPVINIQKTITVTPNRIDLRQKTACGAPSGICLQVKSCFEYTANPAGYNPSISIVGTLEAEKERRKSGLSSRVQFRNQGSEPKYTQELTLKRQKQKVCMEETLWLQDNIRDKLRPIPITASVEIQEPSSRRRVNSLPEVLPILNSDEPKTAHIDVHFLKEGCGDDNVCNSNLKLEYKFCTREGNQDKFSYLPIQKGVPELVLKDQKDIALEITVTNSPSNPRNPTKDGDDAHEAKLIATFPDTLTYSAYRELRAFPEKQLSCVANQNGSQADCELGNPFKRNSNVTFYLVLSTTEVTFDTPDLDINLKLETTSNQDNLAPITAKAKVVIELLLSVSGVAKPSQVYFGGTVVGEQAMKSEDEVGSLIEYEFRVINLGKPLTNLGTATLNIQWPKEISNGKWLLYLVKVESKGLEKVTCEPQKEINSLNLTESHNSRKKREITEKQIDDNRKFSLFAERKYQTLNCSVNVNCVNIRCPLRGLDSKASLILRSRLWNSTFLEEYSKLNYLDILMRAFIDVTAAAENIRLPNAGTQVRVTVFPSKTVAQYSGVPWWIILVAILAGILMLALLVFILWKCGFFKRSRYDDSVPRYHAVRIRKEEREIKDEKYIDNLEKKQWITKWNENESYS
Chain of UniProt P23229 (P16144 28-1822, chain 2 of 2, further chain): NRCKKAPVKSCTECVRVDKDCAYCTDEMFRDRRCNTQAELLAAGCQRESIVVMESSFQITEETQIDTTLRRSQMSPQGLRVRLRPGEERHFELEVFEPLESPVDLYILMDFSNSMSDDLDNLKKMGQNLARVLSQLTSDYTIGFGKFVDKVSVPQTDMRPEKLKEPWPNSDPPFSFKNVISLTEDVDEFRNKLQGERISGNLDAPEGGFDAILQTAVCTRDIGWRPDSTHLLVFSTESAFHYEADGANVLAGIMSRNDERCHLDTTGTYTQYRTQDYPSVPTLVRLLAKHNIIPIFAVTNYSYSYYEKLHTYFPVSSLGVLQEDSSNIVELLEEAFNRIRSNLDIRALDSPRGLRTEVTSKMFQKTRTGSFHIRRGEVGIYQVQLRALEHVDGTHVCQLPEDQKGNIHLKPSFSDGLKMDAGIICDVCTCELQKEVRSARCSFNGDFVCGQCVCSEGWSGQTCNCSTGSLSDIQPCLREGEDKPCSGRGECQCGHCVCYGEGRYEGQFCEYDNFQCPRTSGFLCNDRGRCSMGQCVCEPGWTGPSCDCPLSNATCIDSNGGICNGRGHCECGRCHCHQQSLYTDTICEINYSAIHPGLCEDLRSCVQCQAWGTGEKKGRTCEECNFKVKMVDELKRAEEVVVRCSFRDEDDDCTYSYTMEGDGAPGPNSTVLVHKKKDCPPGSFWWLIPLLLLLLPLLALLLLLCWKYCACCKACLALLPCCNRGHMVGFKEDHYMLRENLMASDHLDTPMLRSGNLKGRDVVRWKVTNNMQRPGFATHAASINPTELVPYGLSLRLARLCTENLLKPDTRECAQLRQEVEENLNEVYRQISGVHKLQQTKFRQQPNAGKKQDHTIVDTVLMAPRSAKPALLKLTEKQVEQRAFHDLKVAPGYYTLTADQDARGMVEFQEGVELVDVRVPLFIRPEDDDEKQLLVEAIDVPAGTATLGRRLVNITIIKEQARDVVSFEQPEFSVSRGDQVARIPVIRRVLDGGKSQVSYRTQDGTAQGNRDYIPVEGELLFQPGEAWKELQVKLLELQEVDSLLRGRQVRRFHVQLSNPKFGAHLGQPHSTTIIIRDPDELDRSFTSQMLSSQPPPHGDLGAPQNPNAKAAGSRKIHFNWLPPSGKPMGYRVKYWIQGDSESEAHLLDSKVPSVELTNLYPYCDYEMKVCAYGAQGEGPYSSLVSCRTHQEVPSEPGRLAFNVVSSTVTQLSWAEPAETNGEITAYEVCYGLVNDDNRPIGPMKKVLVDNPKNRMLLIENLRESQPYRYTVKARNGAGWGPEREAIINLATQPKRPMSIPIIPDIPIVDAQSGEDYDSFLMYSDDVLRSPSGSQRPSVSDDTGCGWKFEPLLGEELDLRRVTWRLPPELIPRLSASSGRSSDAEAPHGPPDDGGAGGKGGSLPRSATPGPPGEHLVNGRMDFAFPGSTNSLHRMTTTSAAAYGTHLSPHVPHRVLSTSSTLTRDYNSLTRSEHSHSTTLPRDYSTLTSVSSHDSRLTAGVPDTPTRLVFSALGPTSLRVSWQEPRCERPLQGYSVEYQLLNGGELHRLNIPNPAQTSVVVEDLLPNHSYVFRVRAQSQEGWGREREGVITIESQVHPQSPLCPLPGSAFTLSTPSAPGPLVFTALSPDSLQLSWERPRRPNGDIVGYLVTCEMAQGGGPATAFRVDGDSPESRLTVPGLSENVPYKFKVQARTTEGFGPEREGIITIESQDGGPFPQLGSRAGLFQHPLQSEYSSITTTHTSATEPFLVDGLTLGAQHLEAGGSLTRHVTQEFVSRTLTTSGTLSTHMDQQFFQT

- Kd: 2500 nM
Substance: AG86 laminin peptide
